Where no end group is shown, it is not given here.
Experiments:
[1] = target: T1, Anti-CD28 Fab (SEQ ID NOs: 696, 697); experiment: phage binding ELISA; Fab coated wells pre-incubated with CD28 antigen as competitor, anti-M13 HRP detection
T1 construct: Biotinylated and captured on neutravidin coated plates in the phage ELISA
Description: (§1) Clonal phage were harvested as crude supematants and screened via standard ELISAs. […] Prior to the addition of clonal phage, wells were incubated with blocking buffer and CD28 antigen or blocking buffer alone. Without washing or aspirating, clonal phage supematants were then added to the wells and incubated for a short time. Wells were then washed followed by detection of bound phage using a horse radish conjugated anti-M13 antibody.

[2] = target: T1, Anti-CD28 Fab (SEQ ID NOs: 696, 697); experiment: phage binding ELISA; biotinylated anti-CD28 Fab on neutravidin plate, clonal phage supernatant, anti-M13 HRP detection;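 further: wells pretreated with blocking buffer, either plus or minus CD28 antigen, then given crude phage supernatant briefly without washing in between, then washed before anti-M13 HRP readout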
Description: as §1

[3] = target: T2, Anti-PSMA Fab (SEQ ID NOs: 19, 20); experiment: phage ELISA; PSMA Fab on plate pre-incubated with PSMA antigen as competitor, anti-M13-HRP detection;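 further: clonal phage from crude supernatants added without washing to wells preblocked with or without PSMA antigen, washed, bound phage read out by ELISA with HRP-linked anti-M13 antibody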
T2 construct: Biotinylated and captured on neutravidin coated plates in the phage ELISA; also called 006 PSMA Fab
Description: (§2) Clonal phage were harvested as crude supernatants and screened via standard ELISAs. […] Prior to the addition of clonal phage. wells were incubated with blocking buffer and PSMA antigen or blocking buffer alone. Without washing or aspirating, clonal phage supernatants were then added to the wells and incubated for a short time. Wells were then washed followed by detection of bound phage using a horse radish conjugated anti-M13 antibody.

[4] = target: T2, Anti-PSMA Fab (SEQ ID NOs: 19, 20); experiment: phage ELISA; biotinylated PSMA Fab on neutravidin plate, clonal phage supernatant, anti-M13-HRP detection;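 further: wells were preincubated with blocking buffer containing PSMA antigen or with blocking buffer only, then phage supernatant was added without washing for a brief incubation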
Description: as §2

[5] = target: T3, Anti-PSMA Fab (SEQ ID NOs: 19, 20); experiment: phage ELISA; biotinylated PSMA Fab on neutravidin plate, bound phage detected with anti-M13-HRP;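 further: crude clonal phage supernatants added, without a wash, to wells pretreated with PSMA antigen in blocking buffer or with blocking buffer only, then briefly incubated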
T3 construct: Biotinylated and captured on neutravidin coated plates in the phage ELISA; also called 006 PSMA Fab
Description: as §2

[6] = target: T3, Anti-PSMA Fab (SEQ ID NOs: 19, 20); experiment: phage ELISA; PSMA Fab on plate pre-incubated with PSMA antigen as competitor, anti-M13-HRP detection; remark: listed apart in the source;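 further: clonal phage from crude supernatants added without washing to wells preblocked with or without PSMA antigen, washed, bound phage read out by ELISA with HRP-linked anti-M13 antibody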
Description: as §2

T1 sequence (VH, as listed by the source, chain 1 of 2): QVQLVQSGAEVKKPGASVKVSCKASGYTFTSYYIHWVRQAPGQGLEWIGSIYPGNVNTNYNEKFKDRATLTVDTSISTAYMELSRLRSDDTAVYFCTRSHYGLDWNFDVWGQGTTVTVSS
T1 sequence (VL, as listed by the source, chain 2 of 2): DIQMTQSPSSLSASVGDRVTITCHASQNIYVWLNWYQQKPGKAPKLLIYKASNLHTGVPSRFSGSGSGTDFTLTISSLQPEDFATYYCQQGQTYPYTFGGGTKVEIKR

Binder | Phage binding ELISA, Anti-PSMA Fab signal in the presence of PSMA [3] | Phage binding ELISA, Anti-PSMA Fab signal [4] | Phage binding ELISA, Anti-PSMA Fab signal [5] | Phage binding ELISA, Anti-PSMA Fab signal in the presence of PSMA [6] | also measured
LCAAGATYPWPLCL [Phage-1341] |  |  |  |  | Anti-CD28 Fab signal in the presence of CD28 [1]: 0.07; Anti-CD28 Fab (SEQ ID NOs: 696, 697) signal [2]: 2.39
LCAAGATYPWPTCL [Phage-1344] |  |  |  |  | Anti-CD28 Fab signal in the presence of CD28 [1]: 0.06; Anti-CD28 Fab (SEQ ID NOs: 696, 697) signal [2]: 1.71
TCSAGAAYSWPACF [Phage-1343] |  |  |  |  | Anti-CD28 Fab signal in the presence of CD28 [1]: 0.15; Anti-CD28 Fab (SEQ ID NOs: 696, 697) signal [2]: 1.89
PPILCIPQWMCSPT (cysteine pairing not given here; also: displayed as fusion to phage pIII) [Phage-1981] | 0.0785 | 1.88 |  |  | 
VGMLCKPSWMCDWL (tested as crude phage supernatant) [Phage-1982] | 0.0813 | 1.88 |  |  | 
IFEWCVPAWMCESR (tested as crude phage supernatant) [Phage-1983] | 0.104 | 1.88 |  |  | 
VVKMCRPAWMCDLV (tested as crude phage supernatant) [Phage-1984] | 0.0833 | 1.88 |  |  | 
LENWCIPRWMCHGF (tested as crude phage supernatant) [Phage-1985] | 0.152 | 1.88 |  |  | 
YEKWCTPPWMCEML (tested as crude phage supernatant) [Phage-1986] | 0.0833 | 1.88 |  |  | 
VEKWCTPPWMCAGW (cysteine pairing not given here; also: displayed as fusion to phage pIII, tested as crude phage supernatant) [Phage-1987] | 0.0659 | 1.87 |  |  | 
LDNWCRPLWMCTGF (tested as crude phage supernatant) [Phage-1988] | 0.0836 | 1.87 |  |  | 
EPKLCTPTWMCIGF (tested as crude phage supernatant) [Phage-1989] | 0.118 | 1.87 |  |  | 
LMKWCIPEWMCVDS (tested as crude phage supernatant) [Phage-1990] | 0.0631 | 1.87 |  |  | 
LVKWCTPSWMCINL (tested as crude phage supernatant) [Phage-1991] | 0.0883 | 1.87 |  |  | 
PVKWCIPDWMCAYL (cysteine pairing not given here; also: displayed as fusion to phage pIII, tested as crude phage supernatant) [Phage-1992] | 0.115 | 1.86 |  |  | 
EVKWCTPPWMCMFD (tested as crude phage supernatant) [Phage-1993] | 0.073 | 1.86 |  |  | 
FDKWCIPTWMCELV (tested as crude phage supernatant) [Phage-1994] | 0.145 | 1.86 |  |  | 

Binder | Phage binding ELISA, Anti-PSMA Fab signal in the presence of PSMA [3] | Phage binding ELISA, Anti-PSMA Fab signal [4] | Phage binding ELISA, Anti-PSMA Fab signal [5] | Phage binding ELISA, Anti-PSMA Fab signal in the presence of PSMA [6] | also measured
MGKWCIPPWMCVVD (tested as crude phage supernatant) [Phage-1995] | 0.123 | 1.86 |  |  | 
GSNWCKPAWMCEIM (tested as crude phage supernatant) [Phage-1996] | 0.0723 | 1.86 |  |  | 
LEKWCIPAWMCAVL (cysteine pairing not given here; also: fused to pIII of bacteriophage, Tested as clonal phage supernatant, with the peptide fused to pIII of the bacteriophage) [Phage-2206] |  |  | 1.61 | 0.078 | 
PTKWCIPEWMCSVI (Tested as clonal phage supernatant, with the peptide fused to pIII of the bacteriophage) [Phage-2207] |  |  | 1.61 | 0.0587 | 
ALHWCIPEWMCSSM (Tested as clonal phage supernatant, with the peptide fused to pIII of the bacteriophage) [Phage-2208] |  |  | 1.61 | 0.103 | 
QDHWCVPQWMCEML (Tested as clonal phage supernatant, with the peptide fused to pIII of the bacteriophage) [Phage-2209] |  |  | 1.61 | 0.07 | 
THNWCTPQWMCDGF (Tested as clonal phage supernatant, with the peptide fused to pIII of the bacteriophage) [Phage-2210] |  |  | 1.6 | 0.0628 | 
PGKWCIPAWMCSLV (Tested as clonal phage supernatant, with the peptide fused to pIII of the bacteriophage) [Phage-2211] |  |  | 1.6 | 0.157 | 
TEKWCIPSWMCEIS (Tested as clonal phage supernatant, with the peptide fused to pIII of the bacteriophage) [Phage-2212] |  |  | 1.6 | 0.0837 | 
VIPLCSPPWMCFMS (Tested as clonal phage supernatant, with the peptide fused to pIII of the bacteriophage) [Phage-2213] |  |  | 1.6 | 0.0631 | 
PEKWCIPEWMCDAL (Tested as clonal phage supernatant, with the peptide fused to pIII of the bacteriophage; Read from the row with '-' as the Peptide-180 residue: PEKWCIPEWMCDAL) [Phage-2214] |  |  | 1.6 | 0.0578 | 
GVKWCTPPWMCEVA (Tested as clonal phage supernatant, with the peptide fused to pIII of the bacteriophage) [Phage-2215] |  |  | 1.59 | 0.0672 | 
WAQWCTPSWMCEGF (Tested as clonal phage supernatant, with the peptide fused to pIII of the bacteriophage) [Phage-2216] |  |  | 1.59 | 0.0929 | 
EVKWCIPSWMCESE (Tested as clonal phage supernatant, with the peptide fused to pIII of the bacteriophage) [Phage-2217] |  |  | 1.59 | 0.0904 | 
VPKQCVPEWMCSGF (Tested as clonal phage supernatant, with the peptide fused to pIII of the bacteriophage) [Phage-2218] |  |  | 1.59 | 0.0779 | 
SENWCIPAWMCSGF (Tested as clonal phage supernatant, with the peptide fused to pIII of the bacteriophage) [Phage-2219] |  |  | 1.59 | 0.111 | 
EPKWCTPEWMCLNL (Tested as clonal phage supernatant, with the peptide fused to pIII of the bacteriophage) [Phage-2220] |  |  | 1.58 | 0.0915 | 

From US20260242478A1 (published 2026)
